What was measured:
[1] = target: BRPF2 bromodomain F648A mutant (UniProt O95696); test: pull-down
[2] = target: BRPF2 bromodomain, wild-type, N-terminal His6-tagged (UniProt O95696); test: pull-down
[3] = target: BRPF2 bromodomain, wild-type, N-terminal His6-tagged (UniProt O95696); test: ITC

Sequence of BRPF2 bromodomain, wild-type, N-terminal His6-tagged (O95696 556-688): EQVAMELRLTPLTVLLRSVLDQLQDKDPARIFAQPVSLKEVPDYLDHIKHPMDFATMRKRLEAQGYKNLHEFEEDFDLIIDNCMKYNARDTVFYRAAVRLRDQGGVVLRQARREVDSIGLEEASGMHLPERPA
Sequence of BRPF2 bromodomain F648A mutant (O95696 556-688 F648A): as the sequence (O95696 556-688) above, with F93A counted along it

fold reduction of binding against the wild type [1]	fold reduction of binding with BAY-299 against without inhibitor [2]	Kd [3]	Substance
1.5 fold	3 fold	–	endogenous hyperacetylated histone H4 bearing the K5ac mark (from UniProt P62805 1-103) (natural protein)
–	–	55.2 µM	histone H2AK5ac (1-12) peptide (from UniProt P0C0S8 2-13)
–	–	12.2 µM	histone H4Kac4 (H4K5/8/12/16) (1-20) peptide (from UniProt P62805 2-21)

Source: article doi:10.1101/2022.02.20.481182
